In US20250352661A1 (MYTHIC THERAPEUTICS, published 2025):

T1: Human LRRC15 Protein, His Tag (Acro Biosystems) (human, UniProt Q8TF66 22-538, limits assumed)
T1 construct: not shown: His tag
T1 sequence (looked up): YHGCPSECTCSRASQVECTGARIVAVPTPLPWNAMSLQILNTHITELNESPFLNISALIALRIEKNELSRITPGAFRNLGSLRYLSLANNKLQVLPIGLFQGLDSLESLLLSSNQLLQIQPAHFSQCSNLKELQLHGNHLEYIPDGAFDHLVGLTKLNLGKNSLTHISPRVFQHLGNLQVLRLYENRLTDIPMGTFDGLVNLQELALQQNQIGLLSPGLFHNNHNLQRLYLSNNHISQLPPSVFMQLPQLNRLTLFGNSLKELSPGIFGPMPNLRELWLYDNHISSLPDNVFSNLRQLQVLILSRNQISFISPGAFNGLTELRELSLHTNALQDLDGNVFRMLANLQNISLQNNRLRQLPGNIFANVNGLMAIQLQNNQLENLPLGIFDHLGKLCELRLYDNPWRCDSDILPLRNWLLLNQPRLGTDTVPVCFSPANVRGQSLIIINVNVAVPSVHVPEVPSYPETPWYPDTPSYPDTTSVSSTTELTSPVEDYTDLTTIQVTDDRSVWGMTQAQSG

B1: MYT9465 (antibody, V domains shown)
VH: EVQLVESGGGLVQPGGSLRLSCTASGDSFSSSHWICWVRQAPGKGLEWVGCIYAGSIGSTYYASWAKGRFTISRDTSKNTVYLQMNSLRAEDTAVYYCARAPNDIYNYYFNLWGQGTLVTVSS
VL: EIVMTQSPSTLSASVGDRVIITCQASENIYNYLAWYQQKPGKAPKLLIYYASTLASGVPSRFSGSGSGAEFTLTISSLQPDDFATYYCQSGYVSKSSTFGQGTKLTVL
notes: also called hu29F1 VH F27D
B2: MYT9484 (antibody, V domains shown)
VH: EVQLVESGGGLVQPGGSLRLSCTASGFSFSSSHWICWVRQAPGKGLEWVGCIYAGSIGSDYYASWAKGRFTISRDTSKNTVYLQMNSLRAEDTAVYYCARAPNDIYNYYFNLWGQGTLVTVSS
VL: EIVMTQSPSTLSASVGDRVIITCQASENIYNYLAWYQQKPGKAPKLLIYYASTLASGVPSRFSGSGSGAEFTLTISSLQPDDFATYYCQSGYVSKSSTFGQGTKLTVL
notes: also called hu29F1 VH T60D
B3: MYT9489 (antibody, V domains shown)
VH: EVQLVESGGGLVQPGGSLRLSCTASGFSFSSSHWICWVRQAPGKGLEWVGCIYAGSIGSTYYASDAKGRFTISRDTSKNTVYLQMNSLRAEDTAVYYCARAPNDIYNYYFNLWGQGTLVTVSS
VL: EIVMTQSPSTLSASVGDRVIITCQASENIYNYLAWYQQKPGKAPKLLIYYASTLASGVPSRFSGSGSGAEFTLTISSLQPDDFATYYCQSGYVSKSSTFGQGTKLTVL
notes: also called hu29F1 VH W65D
B4: MYT9480 (antibody, V domains shown)
VH: EVQLVESGGGLVQPGGSLRLSCTASGFSFSSSHWICWVRQAPGKGLEWVGCIYAGDIGSTYYASWAKGRFTISRDTSKNTVYLQMNSLRAEDTAVYYCARAPNDIYNYYFNLWGQGTLVTVSS
VL: EIVMTQSPSTLSASVGDRVIITCQASENIYNYLAWYQQKPGKAPKLLIYYASTLASGVPSRFSGSGSGAEFTLTISSLQPDDFATYYCQSGYVSKSSTFGQGTKLTVL
notes: Humanized 29F1 VH aspartate variant; also called hu29F1 VH S56D
B5: MYT9476 (antibody, V domains shown)
VH: EVQLVESGGGLVQPGGSLRLSCTASGFSFSSSHWICWVRQAPGKGLEWVGCDYAGSIGSTYYASWAKGRFTISRDTSKNTVYLQMNSLRAEDTAVYYCARAPNDIYNYYFNLWGQGTLVTVSS
VL: EIVMTQSPSTLSASVGDRVIITCQASENIYNYLAWYQQKPGKAPKLLIYYASTLASGVPSRFSGSGSGAEFTLTISSLQPDDFATYYCQSGYVSKSSTFGQGTKLTVL
notes: also called hu29F1 VH I52D
B6: MYT9468 (antibody, V domains shown)
VH: EVQLVESGGGLVQPGGSLRLSCTASGFSFDSSHWICWVRQAPGKGLEWVGCIYAGSIGSTYYASWAKGRFTISRDTSKNTVYLQMNSLRAEDTAVYYCARAPNDIYNYYFNLWGQGTLVTVSS
VL: EIVMTQSPSTLSASVGDRVIITCQASENIYNYLAWYQQKPGKAPKLLIYYASTLASGVPSRFSGSGSGAEFTLTISSLQPDDFATYYCQSGYVSKSSTFGQGTKLTVL
notes: also called hu29F1 VH S30D
B7: MYT9485 (antibody, V domains shown)
VH: EVQLVESGGGLVQPGGSLRLSCTASGFSFSSSHWICWVRQAPGKGLEWVGCIYAGSIGSTDYASWAKGRFTISRDTSKNTVYLQMNSLRAEDTAVYYCARAPNDIYNYYFNLWGQGTLVTVSS
VL: EIVMTQSPSTLSASVGDRVIITCQASENIYNYLAWYQQKPGKAPKLLIYYASTLASGVPSRFSGSGSGAEFTLTISSLQPDDFATYYCQSGYVSKSSTFGQGTKLTVL
notes: also called hu29F1 VH Y61D
B8: MYT9470 (antibody, V domains shown)
VH: EVQLVESGGGLVQPGGSLRLSCTASGFSFSSDHWICWVRQAPGKGLEWVGCIYAGSIGSTYYASWAKGRFTISRDTSKNTVYLQMNSLRAEDTAVYYCARAPNDIYNYYFNLWGQGTLVTVSS
VL: EIVMTQSPSTLSASVGDRVIITCQASENIYNYLAWYQQKPGKAPKLLIYYASTLASGVPSRFSGSGSGAEFTLTISSLQPDDFATYYCQSGYVSKSSTFGQGTKLTVL
notes: also called hu29F1 VH S32D
B9: MYT9481 (antibody, V domains shown)
VH: EVQLVESGGGLVQPGGSLRLSCTASGFSFSSSHWICWVRQAPGKGLEWVGCIYAGSDGSTYYASWAKGRFTISRDTSKNTVYLQMNSLRAEDTAVYYCARAPNDIYNYYFNLWGQGTLVTVSS
VL: EIVMTQSPSTLSASVGDRVIITCQASENIYNYLAWYQQKPGKAPKLLIYYASTLASGVPSRFSGSGSGAEFTLTISSLQPDDFATYYCQSGYVSKSSTFGQGTKLTVL
notes: also called hu29F1 VH I57D
B10: MYT9486 (antibody, V domains shown)
VH: EVQLVESGGGLVQPGGSLRLSCTASGFSFSSSHWICWVRQAPGKGLEWVGCIYAGSIGSTYDASWAKGRFTISRDTSKNTVYLQMNSLRAEDTAVYYCARAPNDIYNYYFNLWGQGTLVTVSS
VL: EIVMTQSPSTLSASVGDRVIITCQASENIYNYLAWYQQKPGKAPKLLIYYASTLASGVPSRFSGSGSGAEFTLTISSLQPDDFATYYCQSGYVSKSSTFGQGTKLTVL
notes: also called hu29F1 VH Y62D
B11: MYT9491 (antibody, V domains shown)
VH: EVQLVESGGGLVQPGGSLRLSCTASGFSFSSSHWICWVRQAPGKGLEWVGCIYAGSIGSTYYASWADGRFTISRDTSKNTVYLQMNSLRAEDTAVYYCARAPNDIYNYYFNLWGQGTLVTVSS
VL: EIVMTQSPSTLSASVGDRVIITCQASENIYNYLAWYQQKPGKAPKLLIYYASTLASGVPSRFSGSGSGAEFTLTISSLQPDDFATYYCQSGYVSKSSTFGQGTKLTVL
notes: also called hu29F1 VH K67D
B12: MYT9466 (antibody, V domains shown)
VH: EVQLVESGGGLVQPGGSLRLSCTASGFDFSSSHWICWVRQAPGKGLEWVGCIYAGSIGSTYYASWAKGRFTISRDTSKNTVYLQMNSLRAEDTAVYYCARAPNDIYNYYFNLWGQGTLVTVSS
VL: EIVMTQSPSTLSASVGDRVIITCQASENIYNYLAWYQQKPGKAPKLLIYYASTLASGVPSRFSGSGSGAEFTLTISSLQPDDFATYYCQSGYVSKSSTFGQGTKLTVL
notes: also called hu29F1 VH S28D
B13: MYT9469 (antibody, V domains shown)
VH: EVQLVESGGGLVQPGGSLRLSCTASGFSFSDSHWICWVRQAPGKGLEWVGCIYAGSIGSTYYASWAKGRFTISRDTSKNTVYLQMNSLRAEDTAVYYCARAPNDIYNYYFNLWGQGTLVTVSS
VL: EIVMTQSPSTLSASVGDRVIITCQASENIYNYLAWYQQKPGKAPKLLIYYASTLASGVPSRFSGSGSGAEFTLTISSLQPDDFATYYCQSGYVSKSSTFGQGTKLTVL
notes: Humanized 29F1 VH aspartate variant; also called hu29F1 VH S31D
B14: MYT9490 (antibody, V domains shown)
VH: EVQLVESGGGLVQPGGSLRLSCTASGFSFSSSHWICWVRQAPGKGLEWVGCIYAGSIGSTYYASWDKGRFTISRDTSKNTVYLQMNSLRAEDTAVYYCARAPNDIYNYYFNLWGQGTLVTVSS
VL: EIVMTQSPSTLSASVGDRVIITCQASENIYNYLAWYQQKPGKAPKLLIYYASTLASGVPSRFSGSGSGAEFTLTISSLQPDDFATYYCQSGYVSKSSTFGQGTKLTVL
notes: also called hu29F1 VH A66D
B15: MYT9488 (antibody, V domains shown)
VH: EVQLVESGGGLVQPGGSLRLSCTASGFSFSSSHWICWVRQAPGKGLEWVGCIYAGSIGSTYYADWAKGRFTISRDTSKNTVYLQMNSLRAEDTAVYYCARAPNDIYNYYFNLWGQGTLVTVSS
VL: EIVMTQSPSTLSASVGDRVIITCQASENIYNYLAWYQQKPGKAPKLLIYYASTLASGVPSRFSGSGSGAEFTLTISSLQPDDFATYYCQSGYVSKSSTFGQGTKLTVL
notes: also called hu29F1 VH S64D
B16: MYT9487 (antibody, V domains shown)
VH: EVQLVESGGGLVQPGGSLRLSCTASGFSFSSSHWICWVRQAPGKGLEWVGCIYAGSIGSTYYDSWAKGRFTISRDTSKNTVYLQMNSLRAEDTAVYYCARAPNDIYNYYFNLWGQGTLVTVSS
VL: EIVMTQSPSTLSASVGDRVIITCQASENIYNYLAWYQQKPGKAPKLLIYYASTLASGVPSRFSGSGSGAEFTLTISSLQPDDFATYYCQSGYVSKSSTFGQGTKLTVL
notes: also called hu29F1 VH A63D

target: T1, Human LRRC15 Protein, His Tag (Acro …); assay: BLI; dissociation pH 7.4 black, pH 5.4 grey [1/2); D00019 FIG. 4B (1/2]
Procedure: Desirable mutations were transferred to a humanized framework (humanized, MYT 8387-8411). After allowing for four days of protein expression, cell culture supernatants were collected, quantified by SDS-PAGE analysis, and the pH dependence of the variant was evaluated using biolayer interferometry (BLI) on an Octet RED 96e instrument. Briefly, cell culture supernatants were diluted based on qualitative expression level of the variant determined by visual examination of SDS-PAGE gels, 5 μL of cell culture supernatant was diluted into 195 μL of 1×PBST, pH 7.4 for high expressors, 25 μL of cell culture supernatant was diluted into 175 μL of 1×PBST, pH 7.4 for medium expressors and 100 μL of cell culture supernatant was diluted into 100 μL of 1×PBST, pH 7.4 for low expressors for loading onto the sensor tips. The resulting diluted supernatants were then captured on an anti-human Fc sensor (Forte Bio). A baseline was established using 1×PBST (50 mM Potassium Phosphate Buffer+150 mM NaCl+0.05% Tween 20) pH 7.4, and the […] was associated with 50 nM of LRRC15 (Human LRRC15 Protein, His Tag, Acro Biosystems) in 1×PBST pH 7.4 for 120 sec to generate an association curve. In the dissociation phase, the antibody-antigen complex on the sensor was exposed to 1×PBST pH 7.4 or pH 5.4, for 300 sec. Association and dissociation phase curves were examined for the starting ABPC antibody (with no substitutions) and each corresponding antibody variant at pH 5.4 and pH 7.4 to inform on two criteria: a) enhanced dissociation (i.e., higher koff values) at pH 5.4 due to histidine substitution compared to the starting ABPC, (with no substitutions), and b) reduced dissociation at pH 7.4 (i.e., lower koff values) compared to pH 5.4 in the antibody variant itself and with the starting ABPC (with no substitutions).
The methods of Examples 9-10 were applied to RabMAb clone 29F1 (rabbit VH SEQ ID NO: 572 and VL SEQ ID NO: 578; and humanized VH SEQ ID NO: 576 and VL SEQ ID NO: 582).

Binding result, binds:
B1
B2
B3
B4
B5
B6
B7
B8
B9
B10
B11
B12
B13
B14
B15
B16
